T1: T2 mechanosensitive channel from Thermoplasma volcanium, tag free (Thermoplasma volcanium)
T1 construct: TVN0821, gene amplified from genomic DNA (DSM 4299 [GSS1*]); 297 amino acids per monomer; Cloned into pNIC28-Bsa4 (TEV site) and pET46 (Enterokinase site); In detergent (0.03 % DDM); also called T2 channel; tag free T2-channel; source: E. coli C43(DE3), purified (DDM solubilised, IMAC, tag cleavage, second IMAC, gel filtration); not shown: His-tag, N-terminal, cleaved
T1 chain: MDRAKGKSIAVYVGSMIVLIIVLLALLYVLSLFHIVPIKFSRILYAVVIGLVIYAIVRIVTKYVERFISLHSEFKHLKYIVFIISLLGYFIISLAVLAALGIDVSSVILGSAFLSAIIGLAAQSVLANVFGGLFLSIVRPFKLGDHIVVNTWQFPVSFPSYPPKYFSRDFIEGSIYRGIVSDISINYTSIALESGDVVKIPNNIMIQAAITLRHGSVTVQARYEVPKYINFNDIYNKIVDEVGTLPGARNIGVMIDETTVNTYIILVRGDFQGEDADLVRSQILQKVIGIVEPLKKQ


Key:
[1] = target: T1, T2 mechanosensitive channel from …; assay: SPR; BIAcore 3000, 25 °C, 20 mM sodium phosphate pH 7.4, 150 mM NaCl, 0.03 % DDM; T2 channel amine-coupled on CM5 (1500 - 2000 RU); nanobodies 0.35 - 86.1 nM injected in triplicates; global fit to a simple bimolecular model, KD = kd/ka; details: both partners purified
[2] = target: His-tagged T2 mechanosensitive channel from Thermoplasma volcanium (Thermoplasma volcanium); assay: far-Western, overlay or dot blot; channel samples run on SDS-PAGE and blotted on nitrocellulose (His-tagged T1 0.1 µg, His-tagged T2 0.1 µg, tag free T2 0.01 and 0.1 µg); strips incubated with nanobody at 1 µg/ml for 1 hour, bound His-tagged nanobody detected with HisProbe-HRP; intensity ratio of lane 2 of the sample strip to the reference strip

Kd [1] [nM]	koff [1] [s⁻¹]	kon [1] [M⁻¹ s⁻¹]	ratio of WB intensities [2]	Binder
14.2	0.0278	1.98e+06		nanobody 1 (VHH, pHEN6 vector; also called Nb 1; CA-number 3379; source: E. coli WK6 periplasm, purified (IMAC, gel filtration); not shown: His-tag, C-terminal, kept) VHH: QVQLQESGGGLVQPGGSLRLSCAASGRIPFITAMGWYRQAPGKQRELLASVTNSEITNYADSVKGRFTISRDNARNRVYLQMNSLKPEDTAVYYCNVKRAGNLIDYWGQGTQVTVSS
0.78	0.00095	1.26e+06	16.6	nanobody 23 (VHH, pHEN6 vector; also called Nb 23; CA-number 3407; source: E. coli WK6 periplasm, purified (IMAC, gel filtration); not shown: His-tag, C-terminal, kept) VHH: QVQLQESGGGLVQPGGFLTLSCAASGSPFSFGAMGWYRQAPGKQRELVAIITRRGSTNYADSVKGRFTVSSDNAKNTVYLQMNSLKPEDTAVYYCYHQTAPVADVTWGQGTQVTVSS
15.1	0.0016	100000	14.2	nanobody 11 (VHH, pHEN6 vector; also called Nb 11; CA-number 3393; source: E. coli WK6 periplasm, purified (IMAC, gel filtration); not shown: His-tag, C-terminal, kept) VHH: QVQLQESGGGLVQAGGSLRLSCAASGGPFTFGAMGWYRQAPGKQRELVAIITKKGSTNYADSVKGRFTVSRDNAKNTVYLQMNSLKPEDTAVYYCYHQTAPVADVTWGQGTQVTVSS
4.5	0.00315	710000	6.09	nanobody 17 (VHH, pHEN6 vector; also called Nb 17; CA-number 3399; source: E. coli WK6 periplasm, purified (IMAC, gel filtration); not shown: His-tag, C-terminal, kept) VHH: QVQLQESGGGLVQPGGSLRLSCAASGSIFSINSMDWYRQAPGKQRELVATITSGGSTNYADSVKGRFTISRDNGKNTVYLQMNSLKPEDTAVYYCHAVVSTRGGYWGQGTQVTVSS
2.6	0.0023	880000	6.07	nanobody 14 (VHH, pHEN6 vector; also called Nb 14; CA-number 3396; source: E. coli WK6 periplasm, purified (IMAC, gel filtration); not shown: His-tag, C-terminal, kept) VHH: QVQLQESGGGLVQPGGSLRLSCAASGSIFSINSMDWYRQAPGKQRELVATITSGGSTNYADSVKGRFTISRDNAKNTVYLQMNSLKPEDTAVYLCHAVVATRGGYWGQGTQVTVSS
3.5	0.0036	1.03e+06	4.86	nanobody 20 (VHH, pHEN6 vector; also called Nb 20; CA-number 3403; source: E. coli WK6 periplasm, purified (IMAC, gel filtration); not shown: His-tag, C-terminal, kept) VHH: QVQLQESGGGLVQPGGSLRLSCAASGNIFGINSMDWYRQAPGKQRELVATITSGGSTNYGDSVKGRFTISRDNAKNTMYLQMNSLKPEDTAVYYCHAVLSTRGGYWGQGTQVTVSS
3.9	0.0036	940000	9.8	nanobody 10 (VHH, pHEN6 vector; also called Nb 10; CA-number 3391; source: E. coli WK6 periplasm, purified (IMAC, gel filtration); not shown: His-tag, C-terminal, kept) VHH: QVQLQESGGGLVQPGGSLRLSCAASGSIFSINSMDWYRQAPGKQRELVATITSGGSTNYADSVKGRFTISRDNAKNTVYLQMNSLKPEDTAVYYCHAVVATRGGYWGQGTQVTVSS
3.4	0.0021	620000	3.87	nanobody 4 (VHH, pHEN6 vector; also called Nb 4; CA-number 3383; source: E. coli WK6 periplasm, purified (IMAC, gel filtration); not shown: His-tag, C-terminal, kept) VHH: QVQLQESGGGLVQPGGSLRLSCAASGSIFSMNSMDWYRQAPGKQRELVATITSGGSTNYADSVKGRFTISRDNAWNTVTLQMNSLKPEDTAVYYCHAVLSTRGGYWGQGTQVTVSS
0.58	0.00089	1.56e+06	15	nanobody 8 (VHH, pHEN6 vector; also called Nb 8; CA-number 3389; source: E. coli WK6 periplasm, purified (IMAC, gel filtration); not shown: His-tag, C-terminal, kept) VHH: QVQLQESGGGLVQPGGSLRLSCAASGSPFSFGAMGWYRQAPGKQRELAAIITNAGSTMYADSVKGRFTVSRVNAKNTVSLQMNNLKPEDTAVYYCYAQTAPVADVTWGQGTQVTVSS
37	0.171	5e+06		nanobody 21 (VHH, pHEN6 vector; also called Nb 21; CA-number 3404; source: E. coli WK6 periplasm, purified (IMAC, gel filtration); not shown: His-tag, C-terminal, kept) VHH: QVQLQESGGGLVQPGGSLRLSCAASGRIPFITAMGWYRQAPGRQRELLATVTNSGSTNYADSVKGRFTISRDNAKNTVSLQMNSLKAEDTAVYYCNVRRLGNLSDYWGQGTQVTVSS
4.4	0.0081	1.82e+06	4.7	nanobody 6 (VHH, pHEN6 vector; also called Nb 6; CA-number 3387; source: E. coli WK6 periplasm, purified (IMAC, gel filtration); not shown: His-tag, C-terminal, kept) VHH: QVQLQESGGGLVQPGGSLRLSCAASGSIFSINAMGWYRQAPGKQRELVAVLTRRGSTNYADSMKGRFTISRDNTKNTVYLQMNSLKPEDTAVYYCNADLEGRPLYWGQGTQVTVSS
3.8	0.0025	650000	7.15	nanobody 12 (VHH, pHEN6 vector; also called Nb 12; CA-number 3394; source: E. coli WK6 periplasm, purified (IMAC, gel filtration); not shown: His-tag, C-terminal, kept) VHH: QVQLQESGGGLVQPGGSLRLSCVASGSIFSINAMGWYRQAPGKQRDLVAVITSRGSTNYADSVKGRFTISRDNAKNTTYLQMNSLKPEDTAVYYCNADLAAYYSGTYYDTLLYWGQGTQVTVSS
9.5	0.0091	960000	4.59	nanobody 3 (VHH, pHEN6 vector; also called Nb 3; CA-number 3382; source: E. coli WK6 periplasm, purified (IMAC, gel filtration); not shown: His-tag, C-terminal, kept) VHH: QVQLQESGGGLVQPGGSLRLSCAASGFTLDYYAIGWFRQTPGKEREGVSCISSSDDSTYYADSVKGRFTISRDNAKNTVYLQMNSLKPEDTAVYYCATGWACTLVAGTNGMDYWGKGTQVTVSS
81.2	0.104	1.31e+06		nanobody 2 (VHH, pHEN6 vector; also called Nb 2; CA-number 3381; source: E. coli WK6 periplasm, purified (IMAC, gel filtration); not shown: His-tag, C-terminal, kept) VHH: QVQLQESGGGLVQAGGSLRLSCAASGGTFRTGGMAWFRQAPGKAREFAAGISWSGGSTDYGDSVKGRFTISRDNAKNTVYLQMNSLKPEDTAVYYCAASRRFRSGVLTRADDVDYWGKGTQVTVSS
25.4	0.0061	240000		nanobody 22 (VHH, pHEN6 vector; also called Nb 22; CA-number 3406; source: E. coli WK6 periplasm, purified (IMAC, gel filtration); not shown: His-tag, C-terminal, kept) VHH: QVQLQESGGGLVQAGGSLRLSCAASGGTFKSGGMAWFRQAPGKAREFAAGISWSGGSTDYEDSVKGRFTISRDNAKNTMYLQMNSLKPEDTAVYYCAAARRFRAGVVTRADDVDYWGKGTQVTVSS
23	0.07	3e+06		nanobody 7 (VHH, pHEN6 vector; also called Nb 7; CA-number 3388; source: E. coli WK6 periplasm, purified (IMAC, gel filtration); not shown: His-tag, C-terminal, kept) VHH: QVQLQESGGGLVQPGGSLRLSCTASGTIFMIDAMGWYRQAPGKQRELVALINSGGSTNYADSVKGRFAISRNNARSTVYLQMNSLKPEDTAVYYCNADTWNGVRRDVYWGQGTQVTVSS
0.057	0.00011	1.96e+06	25.7	nanobody 15 (VHH, pHEN6 vector; also called Nb 15; CA-number 3397; source: E. coli WK6 periplasm, purified (IMAC, gel filtration); not shown: His-tag, C-terminal, kept) VHH: QVQLQESGGGLVQPGGSLRLSCAASGSISTINHMGWYRQPPGKQRELVAVITRSGSTNYADSVKGRFTISRGNVKNTVYLQMNSVKAEDTAVYYCNAYTEFDRPYNHWGQGTQVTVSS
48.3	0.15	3.1e+06		nanobody 9 (VHH, pHEN6 vector; also called Nb 9; CA-number 3390; source: E. coli WK6 periplasm, purified (IMAC, gel filtration); not shown: His-tag, C-terminal, kept) VHH: QVQLQESGGGLVQPGGSLRLSCAASGSIFGINAMGWYRRPPGKQRELVAVITSGGSTNYADSVKGRFTISRGNAKNTVYLQMNSLKAEDTAVYYCNAYTDFVRPYNHWGQGTQVTVSS
1.1	0.00052	480000	15.7	nanobody 18 (VHH, pHEN6 vector; also called Nb 18; CA-number 3401; source: E. coli WK6 periplasm, purified (IMAC, gel filtration); not shown: His-tag, C-terminal, kept) VHH: QVQLQESGGGLVQPGGSLRLSCAASGSIFSINAMGWYRQAPGKQRELVAFITKVGNTNYADSVKDRFAISRDNAKNTVYLQMNSLKPEDTAVYYCYADIENSSNYKQDFYWGQGTQVTVSS
1.29	0.0015	1.35e+06	17.5	nanobody 19 (VHH, pHEN6 vector; also called Nb 19; CA-number 3402; source: E. coli WK6 periplasm, purified (IMAC, gel filtration); not shown: His-tag, C-terminal, kept) VHH: QVQLQESGGGLVQPGGSLRLSCAASGSISRLNHMGWYRQPPGKQRELVAVITSGGSTDYADSVKGRFTISSGNAKNTVYLQMNSLKTEDTAVYYCNAYSEFIRPYTLWGQGTQVTVSS
0.61	0.00088	1.46e+06	15.1	nanobody 13 (VHH, pHEN6 vector; also called Nb 13; CA-number 3395; source: E. coli WK6 periplasm, purified (IMAC, gel filtration); not shown: His-tag, C-terminal, kept) VHH: QVQLQESGGGLVQPGGSLRLSCAASGSISRINHMGWYRQPPGKQRELVAVITSGGSTNYADSVKGRFTISRGNYQNTVYLQMNSLKAEDTAVYYCNAYTEFDRPYNHWGQGTQVTVSS

— paper PMC3804602, “Nanobody Mediated Crystallization of an Archeal Mechanosensitive Channel” (PLoS ONE, 2013)
